Holding throughout (test): purified protein
Common to all, as to conditions: pH 8.0, 25 °C, 50 mM Tris-HCl, 1 mg/mL arabic gum, 0.05% Triton X-100, 10% isopropanol

Series [1] concerns CCCCCCCC/C=C\CCCCCCCC(=O)Oc1ccc([N+](=O)[O-])cc1.
Series [2] concerns CCC(C)CCCCCCCCCCC(=O)Oc1ccc([N+](=O)[O-])cc1.
Series [3] concerns CCCC(=O)Oc1ccc([N+](=O)[O-])cc1.

Take “Geh (Sal2); Geh-6xHis (Staphylococcus aureus subsp. aureus NCTC 8325)”: the values for the Km in series [1] and in series [2] were 160.5 µM and 74.1 µM, respectively. In the case of “Sal1; Sal1-6xHis (Staphylococcus aureus subsp. aureus USA300)”, the Michaelis constant (Km) in series [3] is 332.4 µM.

Values taken from article PMC8452012, “Branched chain fatty acid synthesis drives tissue-specific innate immune response and infection dynamics of Staphylococcus aureus” (PLoS Pathogens, 2021).
